# T1: monkey GFRα3 expressed with a C-terminal myc-myc-hexahistidine tag (monkey (Mf), UniProt O60609 32-374 (human entry), limits assumed)
# T1 construct: also called MfGFRα3-mmh; MfGFRα3-mmH
# T1 chain: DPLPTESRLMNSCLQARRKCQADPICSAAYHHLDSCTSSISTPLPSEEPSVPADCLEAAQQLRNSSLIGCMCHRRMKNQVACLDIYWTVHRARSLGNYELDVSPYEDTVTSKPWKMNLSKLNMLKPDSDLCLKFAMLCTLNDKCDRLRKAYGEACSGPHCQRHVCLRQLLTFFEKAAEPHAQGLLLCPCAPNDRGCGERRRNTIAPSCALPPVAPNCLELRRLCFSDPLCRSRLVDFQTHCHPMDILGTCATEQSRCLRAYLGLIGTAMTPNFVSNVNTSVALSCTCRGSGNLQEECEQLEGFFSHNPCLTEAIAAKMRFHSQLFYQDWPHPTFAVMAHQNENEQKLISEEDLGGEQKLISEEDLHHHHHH
# How the values were obtained:
# [1] = biological target: T1, monkey GFRα3 expressed with a …; assay: SPR, Ab captured, 25C
# Procedure, shortened: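 Rate constants (ka, kd) came from 1:1 fits of 3-fold analyte dilution series (100–3.7 nM Fc-tagged, 200–7.4 nM mmh-tagged) flowed over antibody captured via anti-IgG on CM5. Buffers were HBS-EP or PBS with 0.05% P20, pH 7.4. KD and half-life were derived from kd/ka and ln2/(60*kd).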
# [2] = biological target: T2, human GFRα3 expressed with a C-terminal myc-myc-hexahistidine tag (human, UniProt O60609 32-374, biotinylated (sites not given) in ELISA format 2 and in the Octet cross-competition; not in SPR); assay: Octet cross-competition; biotin-hGFRα3-mmH pre-saturated with first antibody H4H2236N3
# T2 construct: also called hGFRα3-mmh; hGFRα3-mmH
# Procedure: A cross-competition assay was conducted to assess the ability of select antibodies to compete with one another for binding to human GFRα3 using an Octet RED384 biosensor (Fortebio Inc.). The entire experiment was performed at 25° C. with the flow rate of 1000 rpm in Octet HBST buffer (0.01 M HEPES pH7.4, 0.15M NaCl, 3 mM EDTA, 0.05% v/v Surfactant P20, 0.1 mg/mL BSA). To assess whether 2 antibodies were able to compete with one another for binding to their respective epitopes on biotinylated recombinant human GFRα3 expressed with a C-terminal myc-myc-hexahistidine tag (biotin-hGFRα3-mmH; SEQ ID:370), around ˜1.2 nm of biotin-hGFRα3-mmH was first captured onto streptavidin-coated Octet sensor tips (Fortebio Inc, #18-5019) by submerging the tips for 1 minute into a 10 μg/mL solution of biotin-hGFRα3-mmH. The antigen coated sensor tips were then placed into wells containing 25 μg/mL solution of a first anti-GFRα3 monoclonal antibody for 4 minutes to saturate the biotin-hGFRα3-mmH surface. The sensor tips were then subsequently dipped into wells containing 25 μ/mL solution of a second anti-GFRα3 monoclonal antibody. The sensor tips were washed in Octet HBST buffer in between every step of the experiment. The real-time binding response was monitored during the course of the experiment and the binding response at the end of every step was recorded as shown in FIG. 9. The response of mAb-2 binding to biotin-hGFRα3-mmH pre-complexed with the first antibody was compared and competitive/non-competitive behavior of different anti-GFRα3 monoclonal antibodies was determined.
# T2 sequence (O60609 other isoform, or with tags, fused parts or gaps limits assumed): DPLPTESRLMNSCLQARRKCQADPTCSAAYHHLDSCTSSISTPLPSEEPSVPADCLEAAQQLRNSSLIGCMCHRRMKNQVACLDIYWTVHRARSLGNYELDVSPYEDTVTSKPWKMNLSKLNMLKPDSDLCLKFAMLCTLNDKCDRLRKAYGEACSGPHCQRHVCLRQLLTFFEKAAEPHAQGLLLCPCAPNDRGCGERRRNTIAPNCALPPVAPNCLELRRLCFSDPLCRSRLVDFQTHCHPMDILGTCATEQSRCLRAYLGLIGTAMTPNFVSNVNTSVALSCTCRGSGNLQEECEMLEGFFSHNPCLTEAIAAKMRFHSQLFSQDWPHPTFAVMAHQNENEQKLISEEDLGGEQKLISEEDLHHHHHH
Binder,Kd [1],koff [1],kon [1],t1/2 [1],binding response of second antibody (nm) [2]
"H4H2350P (antibody, human IgG4, V domains shown, human IgG4 Fc (H4H)) VH: QVQLQESGPGLVKPSETLSLTCTVSGGSISTYYWSWFRQPPGKGLEWIGYIYYSGSTNHNPSLKSRVTISVDTSKNQFSLKLRSVTAADTAVYYCARVGPVGWGSWGNFDYWGQGTLVTVSS VL: DIQLTQSPSFLSASVGDRVTITCWASQGISSYLAWSQQKPGKAPKLLIYAASTLQSGVPSRFSGSGSGTEFTLTISSLQPEDFATYYCQQLNSYPWTFGQGTKVEIK",1.71 nM,0.000111 s⁻¹,64700 M⁻¹ s⁻¹,1.73 h,1.35 nm
"H4H2352S (antibody, human IgG4, V domains shown, human IgG4 Fc (H4H); also called H4H2352S-1) VH: EVQLVQSGAEVKKPGASVKVSCKASGYTFTNYGITWVRQAPGQGLEWMGWISAYNGNTGYAQKFQGRVTMTTDTSTSTAYMELRSLRSDDTAVYYCAREDYDFWRAFDIWGQGTMVTVSS VL: EIVLTQSPGTLSLSPGERATLSCRASQSVSSTYLAWLQQKPGQAPRLLIYGASSRATGIPDRFSGSGSGTDFTLTINRLEPEDFAVYYCQQYAYSPYTFGQGTKLEIK",≤ 0.0029 nM,≤ 1e-06 s⁻¹,345000 M⁻¹ s⁻¹,192 h,1.91 nm
"H4H2357S (antibody, human IgG4, V domains shown, human IgG4 Fc (H4H)) VH: EVQLVESGGGLVQPGGSLRLSCAASTFTFSSYAMTWVRQAPGKGLEWVSSISGSGDSTYYADSVKGRFTISRDNSKNTLFLQMNSLRAEDTAVYYCAKKDGPGRYYVRYGMDVWGQGTTVTVSS VL: DIQMTQSPSSVSASVGDRVTITCRASQGISSWLAWYQQKPGKAPKLLIYTTSSLQSGVPSRFSGSGSGTDFTLTISSLQPEDFATYYCQQANSFPLTFGGGTKVDIK",2.26 nM,0.000315 s⁻¹,140000 M⁻¹ s⁻¹,0.617 h,0.04 nm
"H4H2292S (antibody, human IgG4, V domains shown, human IgG4 Fc (H4H)) VH: EVQLVESGGGVVQPGRSLRLSCAASGFTFSSYGMHWVRQAPGKGLEWVSFIWYDGSNKYYADSVKGRFTISRDNSKNTLYLQMNSLTAEDTAVYYCARRGILTGTTAFDIWGQGTMVTVSS VL: DIQMTQSPSSLSASVGDRVTITCRASQSISSYLNWYQQKPGKAPKLLIYAASSLQSGVPSRFSGSGSGTDFTLTIRSLIPEDFATYYCQQTYNTPFTFGPGTKVEIK",1.57 nM,0.000122 s⁻¹,77600 M⁻¹ s⁻¹,1.58 h,1.81 nm
